Experimental data reported in PMC5312596, “A novel Pfs38 protein complex on the surface of Plasmodium falciparum blood-stage merozoites” (Malaria Journal, 2017).

T1: recombinant PfMSP-1_(65) (aa 1052–1664) (Plasmodium falciparum 3D7, UniProt Q8I0U8 1052-1664)
T1 construct: Merozoite surface protein 1 (MSP-1), Plasmodium falciparum 3D7, aa 1052-1664, amplified from 3D7 cDNA and cloned in pET28b (NcoI/XhoI); Cloning in pET28b between NcoI and XhoI would give a C-terminal His6 (surmised); also called rPfMSP-1_(65); source: E. coli BL21, soluble, purified (Ni-NTA)
T1 sequence: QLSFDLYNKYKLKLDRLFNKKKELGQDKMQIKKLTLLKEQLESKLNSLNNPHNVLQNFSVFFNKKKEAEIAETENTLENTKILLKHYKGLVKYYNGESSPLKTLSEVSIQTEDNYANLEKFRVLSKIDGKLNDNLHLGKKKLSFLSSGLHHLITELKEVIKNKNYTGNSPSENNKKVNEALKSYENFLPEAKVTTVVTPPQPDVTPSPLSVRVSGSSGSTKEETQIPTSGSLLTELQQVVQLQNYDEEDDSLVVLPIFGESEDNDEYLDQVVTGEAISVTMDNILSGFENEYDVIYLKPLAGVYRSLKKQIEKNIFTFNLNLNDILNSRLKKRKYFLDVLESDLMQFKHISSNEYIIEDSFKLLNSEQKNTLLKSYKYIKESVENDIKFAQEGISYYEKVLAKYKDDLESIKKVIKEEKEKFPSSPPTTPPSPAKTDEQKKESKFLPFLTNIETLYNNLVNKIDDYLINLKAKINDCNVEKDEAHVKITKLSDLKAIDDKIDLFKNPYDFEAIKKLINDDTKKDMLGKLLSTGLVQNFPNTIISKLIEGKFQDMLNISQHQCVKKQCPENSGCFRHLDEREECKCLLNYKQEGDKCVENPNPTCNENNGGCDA

B1: recombinant Pfs38 (6-Cys domain, aa 153–328) (domain or fragment)
chain: KIPGCDFNADYKESTAITTFSNMSPRRVKVCDVYPKSGDFISLMCPSDYSIKPDGCFSNVYVKRYPNEEVKEEDRFNLNRKWDASKYNVVSIETVLKMNMITQGDKYSIFSKLPDVKDQVDFTCICQSNDEQDNLMMNVYINNTSYLTNNTRSIGVNKHSFSNSEIFERIEREEIS
notes: Pfs38, Plasmodium falciparum 6-Cys protein; 6-Cys domain aa 153-328, amplified from a codon-optimised synthetic gene (aa 22-328) and cloned in pET28b between NcoI and XhoI; Cloning in pET28b between NcoI and XhoI would give a C-terminal His6 (surmised); The forward primer adds a few residues (Met-Gly-Ser) before the insert (surmised from the primer); also called rPfs38
B2: recombinant GLURP R2 (domain or fragment)
chain: DGPVPSKPFEEIEKVDVQPKIVDLQIIEPNFVDSQPNPQEPVEPSFVKIEKVPSEENKHASVDPEVKEKENVSEVVEEKQNSQESVEEIPVNEDEFEDVHTEQLDLDHKTVDPEIVEVEEIPSELHENEVAHPEIVEIEEVFPEPNQNNEFQEINEDDKSAHIQHEIVEVEEILPEDDKNEKVEHEIVEVEEILPEDKNEKGQHEIVEVEEILPEDDKNEKVEHEIVEVEEILPEDKNEKGQHEIVEVEEILPEDKNEKVEHEIVEVEEILPEDKNEKGQHEIVEVEEILPEDKNEKVQHEIVEVEEILPEDKNEKGQHEIVEVEEILPEEDKNEKGQHEIVEVEEILPEDKNEKVQHEIVEVEEILPEDKNEKVQHEIVEVEEILPEIVEIEEVPSQTNNNENIETIKPEEKKNEFSVEEKAIPQEPVVPTLNENENVTPKPSEGESTKPDIVQIKIVQENKPNKKETPVVDG
modifications: Limits are not printed. The conventional GLURP R2 fragment (705-1178, F32 strain, 1271-aa GLURP) is assumed. The 3D7 orthologue is Q8IJ56.

Legend:
[1] = biological target: T1, recombinant PfMSP-1_(65) (aa 1052–1664); assay: far-Western, overlay or dot blot; 1-5 µg recombinant protein separated by SDS-PAGE, blotted, denatured and renatured; membrane incubated with 2 µg/mL purified GLURP R2, Pfs38 or SERA-5 in 100 mM NaCl, 20 mM Tris pH 7.6, 0.5 mM EDTA, 10% glycerol, 1 mM DTT, 2 h at RT; detected with antisera to the soluble protein; settings: both partners purified
[2] = biological target: B1; assay: SPR; BIACORE 2000, 37 °C, HBS-EP buffer; GLURP R2 immobilised (up to 400 RU) on CM5 chip; Pfs38 injected at increasing concentrations, 20 µL/min; 1:1 Langmuir fit; settings: both partners purified

B1: binds [1].

For B2, the Kd [2] was 26 nM.
